Here are results for 31 molecules from patent US20210380703A1 (RIGEL PHARMACEUTICALS, published 2021).

B1: 375_D05 (antibody, V domains shown)
VH: EVQLLESGGGLVQPGGSLRLSCAASGFTFSSYSMNWVRQAPGKGLEWVASINYNSGYTSYADSVKGRFTISRDNSKNTLYLQMNSLRAEDTAVYYCARSANWHDTHLDYWGQGTLVTVSS
VL: DIQMTQSPSSLSASVGDRVTITCRASQSIVSYLNWYQQKPGKAPKLLIYAATSLHSGVPSRFSGSGSGTDFTLTISSLQPEDFATYYCQQSYDTPLTFGGGTKVEIK
notes: VH/VL only
B2: 375_D12 (antibody, V domains shown)
VH: B1 VH with S30D, S33G, A49S, H106A
VL: B1 VL with V30L, S31T, L33V, L47V, L54R, H55A, D93E
notes: VH/VL only
B3: 376_B05 (antibody, V domains shown)
VH: B1 VH with S50N, S55G, S59G, H106A
VL: B1 VL with V30I, L33V, L54R, H55A, D93E, T94L
notes: VH/VL only
B4: 376_B07 (antibody, V domains shown)
VH: B1 VH with S30D, A49S, S50G, N101T, H106A
VL: B1 VL with V30L, L47V, A50Y, A51V, T52S, S53N, L54R, H55A, T94N
notes: VH/VL only
B5: 375_D08 (antibody, V domains shown)
VH: B1 VH with S31D, S33G, A49S, S50G, T58K, S59G, H106A
VL: B1 VL with V30I, S31T, L54R, H55A, D93S
notes: VH/VL only
B6: 375_D07 (antibody, V domains shown)
VH: B1 VH with S33G, S50N, S59G, H106A
VL: B1 VL with V30I, S31T, L54R, H55A
notes: VH/VL only
B7: 376_A10 (antibody, V domains shown)
VH: B1 VH with S31D, S33G, A49S, S50N, T58K, S59G, H106A
VL: B1 VL with V30L, L54R, H55A, D93E, T94S
notes: VH/VL only
B8: 376_C02 (antibody, V domains shown)
VH: B1 VH with S30D, S33G, A49S, S50G, H106A
VL: B1 VL with L47V, A51V, L54R, H55A, T94S
notes: VH/VL only
B9: 376_F12 (antibody, V domains shown)
VH: B1 VH with S30D, S31D, S50G, S55G, T58K, N101T
VL: not shown
notes: VH/VL only
B10: 375_E01 (antibody, V domains shown)
VH: B1 VH with A49S, S50G, T58K, H106A
VL: B1 VL with V30L, S31T, L47V, L54R, H55A, Y92D, T94S
notes: VH/VL only
B11: 375_G07 (antibody, V domains shown)
VH: B1 VH with S30D, S50G, N101T
VL: B1 VL with V30L, L47V, H55A, T94L
notes: VH/VL only
B12: 376_F03 (antibody, V domains shown)
VH: B1 VH with S30D, S33G, S50N, S55G, S59G, H106A
VL: B1 VL with V30I, S31T, L33V, L47V, A51T, H55A, D93S, T94S
notes: VH/VL only
B13: 376_D05 (antibody, V domains shown)
VH: B1 VH with A49S, S50N, S55G, T58K, S59G, H106A
VL: B1 VL with L33V, H55A
notes: VH/VL only
B14: 376_A12 (antibody, V domains shown)
VH: B1 VH with S50N, T58K, S59G, H106A
VL: B1 VL with V30L, L33V, L47V, L54R, H55A
notes: VH/VL only
B15: 375_H12 (antibody, V domains shown)
VH: B1 VH with S33G, S50G, S55G, T58K, S59G, H106A
VL: B1 VL with V30L, S31T, A50Y, A51V, S53N, L54R, H55Q, D93S, T94I
notes: VH/VL only
B16: 376_E03 (antibody, V domains shown)
VH: B1 VH with S33G, S50N, S55G, S59G, H106A
VL: B1 VL with V30L, L33V, L47V, H55A, T94L
notes: VH/VL only
B17: 375_E07 (antibody, V domains shown)
VH: B1 VH with S31D, S50G, T58K, S59G, H106A
VL: B1 VL with S31T, A50V, A51V, S53N, L54R, H55E, D93E
notes: VH/VL only
B18: 376_A06 (antibody, V domains shown)
VH: B1 VH with S30D, A49S, S50G, N101T, H106A
VL: B1 VL with V30L, L47V, A50Y, A51V, T52S, S53N, L54R, H55A, T94N
notes: VH/VL only
B19: 376_E08 (antibody, V domains shown)
VH: B1 VH with S31D, S33G, S50G, S55G, H106A
VL: B1 VL with L33V, L47V, L54R, H55A, T94S
notes: VH/VL only
B20: 376_E12 (antibody, V domains shown)
VH: B1 VH with S50G, S55G, T58K, N101T
VL: not shown
notes: VH/VL only
B21: 376_A04 (antibody, V domains shown)
VH: B1 VH with S30D, A49S, S50N, S55G, H106A
VL: B1 VL with S31T, L47V, L54R, H55A, T94S
notes: VH/VL only
B22: 376_C11 (antibody, V domains shown)
VH: B1 VH with S30D, S50G, T58K, N101T
VL: B1 VL with V30L, S31T, L47V, L54R, H55A, T94N
notes: VH/VL only
B23: 376_D11 (antibody, V domains shown)
VH: B1 VH with S33G, S50N, S55G, S59G, H106A
VL: B1 VL with V30L, L47V, L54R, H55A, D93N, T94N
notes: VH/VL only
B24: 376_B01 (antibody, V domains shown)
VH: B1 VH with S30D, S50G, S55G, N101T
VL: B1 VL with V30L, S31T, L33V, L47V, L54R, H55A, D93N, T94L
notes: VH/VL only
B25: 376_C01 (antibody, V domains shown)
VH: B1 VH with S30D, S50G, S55G, H106A
VL: B1 VL with V30L, S31T, H55A, T94N
notes: VH/VL only
B26: 376_C06 (antibody, V domains shown)
VH: B1 VH with S33G, S50G, S55G, N101T, H106A
VL: B1 VL with V30L, L47V, L54R, H55A, T94S
notes: VH/VL only
B27: 376_B04 (antibody, V domains shown)
VH: B1 VH with S30D, S33G, N35H, S55G, S59G, H106A
VL: B1 VL with L33V, L47V, L54R, H55A
notes: VH/VL only
B28: 376_B09 (antibody, V domains shown)
VH: B1 VH with S30D, S50N, T58K, S59G, H106A
VL: B1 VL with V30L, S31T, L33V, L47V, L54R, H55A, T94L
notes: VH/VL only
B29: 376_C12 (antibody, V domains shown)
VH: B1 VH with S50G, S55G, S59G, H106A
VL: B1 VL with V30L, S31T, L33V, L54R, H55A, T94S
notes: VH/VL only
B30: 376_B11 (antibody, V domains shown)
VH: B1 VH with A49S, S50G, S55G, H106A
VL: B1 VL with V30L, L33V, L47V, L54R, H55A, T94L
notes: VH/VL only
B31: 376_B06 (antibody, V domains shown)
VH: B1 VH with S50G, T58K, S59G, N101T
VL: B1 VL with V30L, S31T, L54R, H55A, T94L
notes: VH/VL only

Residue numbers refer to the chain shown, from its start.
Also: test concentration or dose not given here.

human ACVR2A, sequence (P27037 20-135 limits assumed): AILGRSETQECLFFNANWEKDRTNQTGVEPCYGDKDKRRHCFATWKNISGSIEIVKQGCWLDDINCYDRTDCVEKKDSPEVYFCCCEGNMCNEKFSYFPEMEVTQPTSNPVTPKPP

One experiment has as its target human ACVR2A (human, UniProt P27037 20-135, limits assumed). Put plainly: ELISA. The essentials:
(§1)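 Binding signal was read by ELISA after ACVR2A-specific monoclonal antibodies were tested against human ACVR2A and mouse ACVR2A, with human Fc as the negative control.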
Turning to B1, the optical density worked out at 3.46 OD.

As to B2, the optical density amounted to 3.24 OD.

In the case of B3, the optical density was 3.65 OD.

Molecule B4 registered an optical density of 3.73 OD.

B5 displayed an optical density of 3.29 OD.

Molecule B6 gave an optical density of 3.56 OD.

The molecule B7 yielded an optical density of 3.68 OD.

Molecule B8 yielded an optical density of 3.44 OD.

The molecule B9 yielded an optical density of 3.13 OD.

In turn, B10 registered an optical density of 3.16 OD.

For B11, the optical density was 3.63 OD.

Molecule B12 yielded an optical density of 3.29 OD.

As for B13, the optical density was determined as 3.6 OD.

On to B14, for which the optical density stood at 3.7 OD.

Consider B15, for which the optical density turned out to be 3.26 OD.

For the molecule B16, the optical density was 3.79 OD.

Turning to B17, the optical density was determined as 3.68 OD.

Turning to B18, the optical density was 3.69 OD.

B19 displayed an optical density of 3.64 OD.

In turn, B20 yielded an optical density of 3.61 OD.

B21: the optical density was determined as 3.59 OD.

Molecule B22 came in with an optical density of 3.7 OD.

In turn, B23 displayed an optical density of 3.7 OD.

Consider B24, for which the optical density was 3.28 OD.

B25: the optical density was found to be 3.26 OD.

As for B26, the optical density was determined as 3.49 OD.

B27: the optical density was found to be 3.41 OD.

Regarding B28, the optical density is 3.78 OD.

In the case of B29, the optical density amounted to 3.7 OD.

In turn, B30 gave an optical density of 3.69 OD.

Take B31: the optical density was found to be 3.7 OD.

A further experiment deals with mouse ACVR2A (mouse, UniProt P27038 20-135, limits assumed). Put plainly: ELISA. The essentials: as §1
mouse ACVR2A, sequence (P27038 20-135 limits assumed): as the sequence (P27037 20-135 limits assumed) above, with K20R, V73I counted along it
On the technique in general: An ELISA detects its analyte on a solid surface through an enzyme-linked reagent.
Consider B1, for which the optical density was 3.61 OD.

As to B2, the optical density worked out at 3.16 OD.

B3 displayed an optical density of 3.78 OD.

B4 came in with an optical density of 3.71 OD.

The molecule B5 registered an optical density of 3.4 OD.

Take B6: the optical density came out at 3.63 OD.

In turn, B7 gave an optical density of 3.64 OD.

B8 displayed an optical density of 3.53 OD.

In turn, B9 showed an optical density of 3.25 OD.

B10 showed an optical density of 3.63 OD.

B11: the optical density was 3.67 OD.

On to B12, for which the optical density came out at 3.47 OD.

B13: the optical density stood at 3.71 OD.

For B14, the optical density was determined as 3.34 OD.

For the molecule B15, the optical density was found to be 3.1 OD.

As to B16, the optical density was found to be 3.74 OD.

Regarding B17, the optical density is 3.81 OD.

Molecule B18 had an optical density of 3.74 OD.

B19 showed an optical density of 3.64 OD.

B20: the optical density worked out at 3.32 OD.

As for B21, the optical density stood at 3.58 OD.

On to B22, for which the optical density stood at 3.63 OD.

Turning to B23, the optical density turned out to be 3.62 OD.

In turn, B24 showed an optical density of 3.67 OD.

Take B25: the optical density was found to be 3.6 OD.

Regarding B26, the optical density worked out at 3.56 OD.

On to B27, for which the optical density was found to be 3.48 OD.

B28 returned an optical density of 3.72 OD.

B29: the optical density is 3.32 OD.

In turn, B30 came in with an optical density of 3.75 OD.

B31 returned an optical density of 3.77 OD.

Another experiment addresses T1, biotinylated goat anti-human kappa light chain.
T1 construct: Positive control of the ELISA
Kind of experiment: ELISA; positive control. The gist of the method: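 Monoclonal antibodies were first applied to human or mouse ACVR2A, alongside biotinylated goat anti-human kappa light chain (positive control) and human Fc (negative control); binding was then determined by ELISA.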
On to B1, for which the optical density came to 3.21 OD.

Molecule B2 gave an optical density of 3.23 OD.

The molecule B3 showed an optical density of 3.52 OD.

In the case of B4, the optical density is 3.53 OD.

For the molecule B5, the optical density is 3.3 OD.

Take B6: the optical density amounted to 3.25 OD.

As to B7, the optical density stood at 3.17 OD.

The molecule B8 yielded an optical density of 3.44 OD.

Consider B9, for which the optical density is 3.44 OD.

The molecule B10 displayed an optical density of 3.11 OD.

In the case of B11, the optical density was 3.2 OD.

B12 displayed an optical density of 3.44 OD.

With B13, the optical density was found to be 3.34 OD.

In turn, B14 displayed an optical density of 3.22 OD.

Molecule B15 displayed an optical density of 3.26 OD.

Turning to B16, the optical density is 3.42 OD.

B17 displayed an optical density of 3.06 OD.

For the molecule B18, the optical density was found to be 3.16 OD.

Consider B19, for which the optical density was found to be 3.47 OD.

Molecule B20 yielded an optical density of 3.42 OD.

Regarding B21, the optical density is 3.12 OD.

The molecule B22 returned an optical density of 3.46 OD.

Molecule B23 gave an optical density of 3.43 OD.

Consider B24, for which the optical density was found to be 3.24 OD.

As for B25, the optical density is 3.2 OD.

As to B26, the optical density was found to be 3.43 OD.

As to B27, the optical density was found to be 3.58 OD.

Take B28: the optical density was found to be 3.51 OD.

On to B29, for which the optical density came out at 3.39 OD.

The molecule B30 returned an optical density of 3.61 OD.

The molecule B31 had an optical density of 3.46 OD.
